Reference: patent US20170183660, “APTAMER TARGETING MAGE-A3 PEPTIDE AND USES THEREOF” (Academia Sinica, published 2017)

T1: NY-ESO-1 peptide 157-170 (UniProt P78358 P78358:157-170)
T1 chain: SLLMWITQCFLPVF

T2: NY-ESO-1 peptide 87-111 (UniProt P78358 P78358:87-111)
T2 chain: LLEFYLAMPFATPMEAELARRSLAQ

T3: MAGE-A3 peptide 111-125 (unmodified) (UniProt P43357)
T3 chain: RKVAELVHFLLLKYR

B1: Ap52 (ssDNA)
DNA: ATCCAGAGTGACGCAGCAAGCACTCAATATTCCCTGGACACGGTGGCTTAGT

Key:
[1] = target: T1, NY-ESO-1 peptide 157-170; experiment: pulldown; specificity control peptide; conditions: protein: synthetic; tags: peptide (synthetic, inferred), streptavidin beads
[2] = target: NY-ESO-1 peptide 119-143 (UniProt P78358 P78358:119-143); experiment: pulldown; specificity control peptide; conditions: protein: synthetic; tags: peptide (synthetic, inferred), streptavidin beads
[3] = target: T2, NY-ESO-1 peptide 87-111; experiment: pulldown; specificity control peptide; conditions: protein: synthetic; tags: peptide (synthetic, inferred), streptavidin beads
[4] = target: T3, MAGE-A3 peptide 111-125 (unmodified); experiment: ITC; 25 C, DPBS with 0.45% glucose, 5 mM MgCl2; dH -24 kcal/mol; conditions: protein: synthetic; tags: none; peptide (synthetic, inferred)
Method: (§1) Thermodynamic profile of the interaction between DNA and peptide was measured with a MicroCal iTC₂₀₀ (GE Healthcare Life Sciences) at 25° C. in washing buffer (0.45% glucose, 5 mM MgCl₂, in Dulbecco's Phosphate-Buffered Saline). The unmodified MAGE-A3₁₁₁₋₁₂₅ peptide (0.3 mM, 200 μl) was titrated with 18 successive injections of 2 μl aptamer (0.1 mM) at 150 s intervals. The data were analyzed using MicroCal Origin 7 and fit with a one-set-of sites binding model to obtain values of enthalpy change (AH) and association constant (Kₐ).

[5] = target: T3, MAGE-A3 peptide 111-125 (unmodified); experiment: ITC; 25 C, DPBS with 0.45% glucose, 5 mM MgCl2; dH -41 kcal/mol; conditions: protein: synthetic; tags: none; peptide (synthetic, inferred)
Method: as §1

Binder	binding result [1]	binding result [2]	binding result [3]	Kd [4]	Kd [5]
B1	no binding	no binding	no binding	57 nM	–
AGCACTCAATATTCCC (ssDNA) [Ap16]	–	–	–	–	95 nM
